Consider 25 substances from patent US10239925B2, “Peptides and combination of peptides for use in immunotherapy against ovarian cancer and other cancers” (IMMATICS BIOTECHNOLOGIES GMBH, priority 2015, dated 2019).

The experiment addresses HLA-A*02:01 (Homo sapiens, UniProt P04439, D140Y/D185E/D98H/E176V/E277Q/G131W/G231S/I119V/I121R/I166T/I218V/L300P/L318F/N151K/N90K/P208A/P217A/Q86G/Q94H/R138H/R169H/T345S). Put plainly: MHC binding assay (UV-ligand exchange, anti-β2m ELISA, peptide exchange yield). The following applies: binding to HLA-A*02:01. In short, it runs like this:
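Yield of stabilized complexes quantified via the β2m light chain in an ELISA (streptavidin capture, 100-fold diluted monomers, HRP anti-β2m 2 ug/ml at 37 °C, TMB, A450). The complexes come from UV-triggered replacement of a photocleavable ligand by the candidate peptide.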

“264 (SLQEQLHSV; listed as Homo sapiens) [compound 264]”: the “Peptide exchange (MHC class I binding score, peptide exchange yield)” value (shortened to “Peptide exchange”) is ““+++” (>50 = +++)”. In the case of “265 (LLFGGTKTV; listed as Homo sapiens) [compound 265]” it was ““++” (>20% = ++)”; in that of “266 (KITDTLIHL; listed as Homo sapiens) [compound 266]”, ““+++” (>50 = +++)”.

As for “267 (ALQDFLLSV; listed as Homo sapiens) [compound 267]”, the “Peptide exchange” value is ““+++” (>50 = +++)”.

In the case of “269 (RVLEVGALQAV; listed as Homo sapiens) [compound 269]”, the “Peptide exchange” value is given as ““++” (>20% = ++)”. To “270 (LLLDEEGTFSL; listed as Homo sapiens) [compound 270]” belongs ““++” (>20% = ++)”. To “271 (LVYPLELYPA; listed as Homo sapiens) [compound 271]” belongs ““+++” (>50 = +++)”; to “272 (ALGNTVPAV; listed as Homo sapiens) [compound 272]”, ““+++” (>50 = +++)”; to “273 (NLFQSVREV; listed as Homo sapiens) [compound 273]”, ““++” (>20% = ++)”. In the case of “274 (SLLFSLFEA; listed as Homo sapiens) [compound 274]” it was ““++” (>20% = ++)”; in that of “275 (YLVYILNEL; listed as Homo sapiens) [compound 275]”, ““++” (>20% = ++)”; in that of “276 (ALFTFSPLTV; listed as Homo sapiens) [compound 276]”, ““+++” (>50 = +++)”. As to “277 (LLPPLESLATV; listed as Homo sapiens) [compound 277]”, the “Peptide exchange” value is given as ““++” (>20% = ++)”.

For the substance “278 (QLLDVVLTI; listed as Homo sapiens) [compound 278]”, the “Peptide exchange” value is on record as ““++” (>20% = ++)”. To “279 (ALWGGTQPLL; listed as Homo sapiens) [compound 279]” belongs ““++” (>20% = ++)”. For “280 (VLPDPEVLEAV; listed as Homo sapiens) [compound 280]”, the “Peptide exchange” value is ““+++” (>50 = +++)”.

For “281 (ILRESTEEL; listed as Homo sapiens) [compound 281]”, the “Peptide exchange” value was ““+++” (>50 = +++)”.

In the case of “282 (LLADVVPTT; listed as Homo sapiens) [compound 282]”, the “Peptide exchange” value was ““+++” (>50 = +++)”.

Regarding “284 (ILLSQTTGV; listed as Homo sapiens) [compound 284]”, the “Peptide exchange” value is reported as ““+++” (>50 = +++)”. To “285 (QLLHVGVTV; listed as Homo sapiens) [compound 285]” belongs ““+++” (>50 = +++)”. On to “286 (YLFPGIPEL; listed as Homo sapiens) [compound 286]”, for which the “Peptide exchange” value is ““+++” (>50 = +++)”. To “287 (FLNEFFLNV; listed as Homo sapiens) [compound 287]” belongs ““+++” (>50 = +++)”; to “288 (NLINEINGV; listed as Homo sapiens) [compound 288]”, ““+++” (>50 = +++)”. To “289 (VLLEIEDLQV; listed as Homo sapiens) [compound 289]” belongs ““++++” (>75% = ++++)”. On to “295 (VLDRESPNV; listed as Homo sapiens) [compound 295]”, for which the “Peptide exchange” value is on record as ““+++” (>50 = +++)”.
